Measurements from patent publication US20030082745A1 (published 2003).
Blank lines part the entries; values can stand above or below the binder they belong to.

Experiments:
[1] = target: T1, pol κ (primary protein product of POLK; DNA polymerase κ) (human, UniProt Q9UBT6 1-870); assay: yeast two-hybrid
T1 construct: Tested as a yeast two-hybrid fusion (FLAG-modified pGBT9 / pGAD424); also called DINB1 product
T1 sequence (looked up): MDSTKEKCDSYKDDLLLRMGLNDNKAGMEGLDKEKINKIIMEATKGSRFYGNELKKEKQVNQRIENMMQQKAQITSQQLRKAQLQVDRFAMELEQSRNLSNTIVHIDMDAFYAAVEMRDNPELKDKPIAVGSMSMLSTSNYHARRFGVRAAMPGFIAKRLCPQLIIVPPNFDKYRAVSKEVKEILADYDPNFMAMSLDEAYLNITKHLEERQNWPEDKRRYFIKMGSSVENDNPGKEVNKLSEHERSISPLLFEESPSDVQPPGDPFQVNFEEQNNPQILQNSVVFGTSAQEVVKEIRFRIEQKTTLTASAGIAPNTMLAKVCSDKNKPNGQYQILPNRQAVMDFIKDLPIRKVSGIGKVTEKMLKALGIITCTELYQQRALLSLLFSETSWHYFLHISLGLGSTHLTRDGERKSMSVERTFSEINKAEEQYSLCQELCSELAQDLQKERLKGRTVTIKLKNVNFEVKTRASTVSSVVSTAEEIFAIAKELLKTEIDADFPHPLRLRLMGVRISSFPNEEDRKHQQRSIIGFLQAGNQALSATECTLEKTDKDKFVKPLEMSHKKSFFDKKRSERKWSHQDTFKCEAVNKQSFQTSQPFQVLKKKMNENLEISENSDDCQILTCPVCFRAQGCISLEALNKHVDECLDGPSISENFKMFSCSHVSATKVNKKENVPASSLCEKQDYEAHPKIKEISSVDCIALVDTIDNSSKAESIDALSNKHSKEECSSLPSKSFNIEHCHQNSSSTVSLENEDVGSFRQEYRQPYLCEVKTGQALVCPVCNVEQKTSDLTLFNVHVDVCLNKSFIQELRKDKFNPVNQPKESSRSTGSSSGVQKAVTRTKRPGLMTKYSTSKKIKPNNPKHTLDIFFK

[2] = target: T2, pol κ76 (76 kDa alternatively spliced isoform product of POLK) (human, UniProt Q9UBT6 1-870); assay: yeast two-hybrid
T2 construct: Tested as a yeast two-hybrid fusion (FLAG-modified pGBT9 / pGAD424); also called 76-kDa pol κ isoform
T2 sequence: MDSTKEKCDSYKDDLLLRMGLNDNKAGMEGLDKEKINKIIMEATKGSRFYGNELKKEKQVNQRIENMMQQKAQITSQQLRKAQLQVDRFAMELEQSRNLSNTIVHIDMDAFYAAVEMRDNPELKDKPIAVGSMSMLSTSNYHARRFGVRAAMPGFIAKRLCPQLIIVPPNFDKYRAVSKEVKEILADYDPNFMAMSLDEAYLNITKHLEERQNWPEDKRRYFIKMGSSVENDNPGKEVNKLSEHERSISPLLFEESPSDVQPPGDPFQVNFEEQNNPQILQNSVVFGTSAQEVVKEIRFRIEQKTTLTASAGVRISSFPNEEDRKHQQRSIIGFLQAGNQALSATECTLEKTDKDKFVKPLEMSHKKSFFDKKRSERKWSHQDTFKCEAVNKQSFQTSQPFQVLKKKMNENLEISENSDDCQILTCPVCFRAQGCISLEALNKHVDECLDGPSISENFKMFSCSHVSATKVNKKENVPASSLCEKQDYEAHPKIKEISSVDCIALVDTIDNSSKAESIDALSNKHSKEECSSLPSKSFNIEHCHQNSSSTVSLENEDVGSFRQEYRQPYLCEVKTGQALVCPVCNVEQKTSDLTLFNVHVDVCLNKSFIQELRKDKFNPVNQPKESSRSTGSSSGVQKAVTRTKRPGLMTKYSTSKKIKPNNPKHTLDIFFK

binding result [1]: no binding | binding result [2]: no binding
B1: GPBPΔ26 (Goodpasture antigen binding protein alternatively spliced product deleted for 26 amino acid residues) (enzyme)
chain: MSDNQSWNSSGSEEDPETESGPPVERCGVLSKWTNYIHGWQDRWVVLKNNALSYYKSEDETEYGCRGSICLSKAVITPHDFDECRFDISVNDSVWYLRAQDPDHRQQWIDAIEQHKTESGYGSESSLRRHGSMVSLVSGASGYSATSTSSFKKGHSLREKLAEMETFRDILCRQVDTLQKYFDACADAVSKDELQRDKVVEDDEDDFPTTRSDGDFLHSTNGNKEKLFPHVTPKGINGIDFKGEAITFKATTAGILATLSHCIELMVKREDSWQKRLDKETEKKRRTEEAYKNAMTELKKKSHFGGPDYEEGPNSLINEEEFFDAVEAALDRQDKIEEQSQSEKVRLHWPTSLPSGDAFSSVGTHRFVQKVEEMVQNHMTYSLQDVGGDANWQLVVEEGEMKVYRREVEENGIVLDPLKATHAVKGVTGHEVCNYFWNVDVRNDWETTIENFHVVETLADNAIIIYQTHKRVWPASQRDVLYLSVIRKIPALTENDPETWIVCNFSVDHDSAPLNNRCVRAKINVAMICQTLVSPPEGNQEISRDNILCKITYVANVNPGGWAPASVLRAVAKREYPKFLKRFTSYVQEKTAGKPILF
notes: Splice isoform of the entry named (26 residues deleted); Two-hybrid construct not described; also called GPBPΔ26

binding result [1]: no binding | binding result [2]: no binding
B2: GPBP (Goodpasture antigen binding protein) (enzyme, UniProt Q9Y5P4 1-624, looked up)
chain: MSDNQSWNSSGSEEDPETESGPPVERCGVLSKWTNYIHGWQDRWVVLKNNALSYYKSEDETEYGCRGSICLSKAVITPHDFDECRFDISVNDSVWYLRAQDPDHRQQWIDAIEQHKTESGYGSESSLRRHGSMVSLVSGASGYSATSTSSFKKGHSLREKLAEMETFRDILCRQVDTLQKYFDACADAVSKDELQRDKVVEDDEDDFPTTRSDGDFLHSTNGNKEKLFPHVTPKGINGIDFKGEAITFKATTAGILATLSHCIELMVKREDSWQKRLDKETEKKRRTEEAYKNAMTELKKKSHFGGPDYEEGPNSLINEEEFFDAVEAALDRQDKIEEQSQSEKVRLHWPTSLPSGDAFSSVGTHRFVQKPYSRSSSMSSIDLVSASDDVHRFSSQVEEMVQNHMTYSLQDVGGDANWQLVVEEGEMKVYRREVEENGIVLDPLKATHAVKGVTGHEVCNYFWNVDVRNDWETTIENFHVVETLADNAIIIYQTHKRVWPASQRDVLYLSVIRKIPALTENDPETWIVCNFSVDHDSAPLNNRCVRAKINVAMICQTLVSPPEGNQEISRDNILCKITYVANVNPGGWAPASVLRAVAKREYPKFLKRFTSYVQEKTAGKPILF
notes: Two-hybrid construct (fusion domain, limits, species) is not described; also called product of COL4A3BP
